US20180371033A1, “THERAPEUTIC PEPTIDES AND METHODS OF USE THEREOF” (priority 2015, published 2018)

Experiments:
[1] = Brain section autoradiography: peptide homing to ventricles and cerebral spinal fluid; format: in vivo, Female Harlan athymic nude mice; details: 14C signal in sagittal/coronal brain sections, 3 hours after administration
From the text: The experiment was done in duplicates.

[2] = for Blood (densitometric signal in the heart blood) / Brain (percentage of signal in that tissue compared to the signal detected in the heart blood): 14C-radiolabeled peptide, tail vein injection, kidneys ligated, target three hours circulation
Method: This example illustrates the dosing of peptide. […] The experiment was done in duplicates.
A target dosage of 20 nmol of each peptide was administered to separate flank sarcoma A204 tumor bearing Female Harlan athymic nude mice while anesthetized. The dosage was adjusted for whole body autoradiography. […] Some animals died after receiving the peptides, possibly due to complications of the anesthesia and surgical procedure used to ligate the kidneys of each mice, or due to toxic effects of some peptides. The circulation time of each peptide varied from animal-to-animal. […] Inulin was used as a negative control, as this polysaccharide is known to not cross the BBB.
At the end of the dosing period, mice were frozen in a hexane/dry ice bath and then frozen in a block of carboxymethylcellulose. Thin, frozen sections of whole animal sagittal slices that include the brain, tumor, liver, kidney, lung, heart, spleen, pancreas, muscle, adipose, gall bladder, upper gastrointestinal track, lower gastrointestinal track, bone, bone marrow, reproductive track, eye, cartilage, stomach, skin, spinal cord, bladder, salivary gland, and other types of tissues were obtained with a microtome, allowed to dessicate in a freezer, and exposed to phosphoimager plates for about ten days.
These plates were developed, and the signal (densitometry) from each organ was normalized to the signal found in the heart blood of each animal. A signal in tissue darker than the signal expected from blood in that tissue indicates accumulation in a region, tissue, structure or cell. Fluoxetine can cross the blood brain barrier, and is a positive control. Inulin cannot cross the blood brain barrier, and is a negative control. FIG. 2 illustrates ^14C signal in the brain and other tissues for the fluoxetine (top) and inulin (bottom) control groups.
Furthermore, the brain contains approximately 3% blood. Thus when comparing the radioactivity signal per area in blood to that in the brain, a signal in the brain that is much higher than 3% of the signal in blood can be attributed to accumulation of the material in the brain through the BBB. A ratio of at least 10% diffuse signal in brain versus blood was chosen as a reference level for high penetration. The densitometric signal can also indicate high concentration within specification locations in the brain, which can indicate crossing the BBB and/or the blood CSF barrier. […] Numbers for blood indicate the densitometric signal in the heart blood. Numbers for the brain indicate the percentage of signal in that tissue compared to the signal detected in the heart blood.

[3] = format: in vivo, mice; details: 14C whole body autoradiography
From the text: This example describes biodistribution of peptides.
ND indicates the peptide was not detected in that tissue.

Substance	localization of the peptide to specific structures in the brain [1]	Blood (densitometric signal in the heart blood) [2]	Brain (percentage of signal in that tissue compared to the signal detected in the heart blood) [2] [%]	penetration of the blood brain barrier in comparison with the negative controls ([2]; reference level for high penetration: at least 10% diffuse signal in brain versus blood)	Adipose (percentage of signal compared to blood in the heart) [3] [%]	Gall bladder (percentage of signal compared to blood in the heart) [3] [%]	Liver (percentage of signal compared to heart blood) [3] [%]	Lower GI (percentage of signal compared to blood in the heart) [3] [%]	Lung (percentage of signal compared to heart blood) [3] [%]	Muscle (percentage of signal compared to blood in the heart) [3] [%]	Pancreas (percentage of signal compared to blood in the heart) [3] [%]	Reproductive (tract; percentage of signal compared to heart blood) [3] [%]	Salivary gland (percentage of signal compared to heart blood) [3] [%]	Spleen (percentage of signal compared to blood in the heart) [3] [%]	Upper GI (percentage of signal compared to blood in the heart) [3] [%]
GSGVPINVKCRGSRDCLDPCKKAGMRFGKCINSKCHCTP [SEQ ID NO: 34]	specific structures in the brain, such as ventricles and CSF	6552245640	9.30	highly penetrate the blood brain barrier	11.69	35.52	82.37	20.73	118.19	34.13	30.35	229.69	57.57	54.28	216.32
Inulin [reference compound]		900918901.9	3.00		5.98	18.65	126.76	10.92	242.98	19.80		129.37	27.58		382.27
